Assay results taken from US6528619B1, “Inhibitors for urokinase receptor” (Roche Diagnostics GmbH, priority 1997, dated 2003).
Each block holds one molecule with its values, some of them ahead of it. Positions of bridges follow the written chain, without caps; N, C: chain ends. Residues, ends and D or L forms follow the SMILES beside them. No end group written: not given here.

Columns and labels:
[1] = target: T1, cell surface-associated uPAR (Homo sapiens, UniProt Q03405); experiment: Flow cytometry: inhibition of binding of FITC-conjugated pro-uPA to cell surface-associated uPAR on PMA-stimulated U937 cells
T1 construct: After stimulation with PMA the U937 cells expressed considerable amounts of cell surface-associated uPAR; endogenous in cells; host or cells: U937 cells stimulated with PMA
Experimental: The ability of the synthetic peptides to inhibit the uPA/-uPAR interaction was determined by means of flow cytometry on a FACScan flow cytometer (Becton-Dickinson, Heidelberg, Germany) using the human promyeloid cell line U937 as a source of cellular native uPAR (Chuchulowski et al., Fibrinolysis 6, Suppl. 4 (1992), 95-102; Magdolen et al., (1996), supra). The U937 cells were stimulated with […] phorbol-12-myristate-13-acetate (PMA) for 48 h. After stimulation with PMA the U937 cells expressed considerable amounts of cell surface-associated uPAR.
The stimulated cells were treated for 1 min at room temperature with 50 mM glycine HCl, 0.1 NaCl, pH 3.6 in order to dissociate endogenous receptor-bound uPA. Subsequently the acidic buffer was neutralized with 0.5 M HEPES-100 mM NaCl, pH 7.5. The cells were then immediately washed twice with PBS/0.1% bovine serum albumin (BSA) and centrifuged for 10 min at room temperature and 300×g. The cells were resuspended in PBS/0.1% BSA, adjusted to a concentration of 10^6 cells per ml and simultaneously incubated for 45 minutes at room temperature with 16 ng FITC-conjugated pro-uPA and various amounts of the synthetic peptides. Before the analysis, propidium iodide, a fluorescent dye which specifically binds double-stranded DNA, was added to each sample in order to determine the viability of the analysed U937 cells. Damaged, propidium iodide-labelled cells were excluded from the analysis.
For this the purified peptides were analysed by mass spectroscopy, quantified by amino acid analysis and then tested by flow cytometry according to the method described in 1.3 for their ability to inhibit the binding of fluorescent-labelled pro-uPA to the uPA receptor on U937 cells.

[2] = target: T2, recombinant human uPAR (Homo sapiens, UniProt Q03405); experiment: Microtitre plate solid phase ATF-ligand binding test (competition with ATF for uPAR); settings: for inhibition of the binding of ATF to uPAR / uPAR binding capacity: 0.6 ng ATF together with 15 μg synthetic peptide per ml, FIG. 2
T2 construct: made in house; host or cells: CHO cells
Experimental: In addition to the flow cytometric analyses, a solid phase ATF-ligand binding test was carried out in order to examine the interactions of synthetic peptides with the uPAR. For this microtitre plates were coated with recombinant human uPAR from CHO cells (Wilhelm et al., FEBS Lett. 337 (1994), 131-134; Magdolen et al., Electrophoresis 16 (1995), 813-816) and the remaining protein-binding sites were saturated with 2% BSA (weight/vol.). After incubation with the samples (0.6 ng ATF together with 15 μg synthetic peptide per ml) and several wash steps, the amount of ATF which had bound to the immobilized uPAR on the microtitre plate was determined using a biotinylated monoclonal mouse antibody against the kringle domain of ATF (No. 377, American Diagnostics, Greenwich, Conn., USA) and subsequent addition of avidin-peroxidase conjugate and 3,3′,5,5′-tetramethylbenzidine/[…] as a substrate for the peroxidase. The presence of synthetic peptides which compete with the ATF binding to uPAR reduces the conversion of the chromogenis substrate.
A series of peptides with variable sequence regions from the receptor binding region of uPA were synthesized and were increasingly shortened at the amino terminus starting with uPA10-32. The microtitre plate solid phase binding test described in 1.4 was used to determine the inhibitory capacity of these peptides.

[3] = Stability of binding activity after long storage in aqueous solution or repeated freeze/thaw cycles; assay type: physicochemical; settings: compared with linear uPA19-31
[4] = target: T3, cell surface-associated uPA receptor (uPAR) on PMA-stimulated human U937 cells (human, UniProt Q03405 23-305); experiment: flow cytometry, competition with FITC-pro-uPA on U937 cells (section 2.1)
T3 construct: whole, on cells; also called urokinase receptor; cellular native uPAR
Experimental: (§1) The U937 cells were stimulated with […] phorbol-12-myristate-13-acetate (PMA) for 48 h.
(§2) Subsequently the acidic buffer was neutralized with 0.5 M HEPES-100 mM NaCl, pH 7.5. The cells were then immediately washed twice with PBS/0.1% bovine serum albumin (BSA) and centrifuged for 10 min at room temperature and 300×g. […] Before the analysis, propidium iodide, a fluorescent dye which specifically binds double-stranded DNA, was added to each sample in order to determine the viability of the analysed U937 cells. Damaged, propidium iodide-labelled cells were excluded from the analysis.

[5] = target: T3, cell surface-associated uPA receptor …; experiment: flow cytometry, competition with FITC-pro-uPA on U937 cells
Experimental: as §1, §2

[6] = target: T4, recombinant human uPAR from CHO cells (human, UniProt Q03405 23-299, limits assumed); experiment: solid phase ATF-ligand binding test, competition with ATF on immobilized recombinant uPAR
T4 construct: Magdolen et al. 1995; also called immobilized uPAR
T4 sequence (Q03405 23-299 limits assumed): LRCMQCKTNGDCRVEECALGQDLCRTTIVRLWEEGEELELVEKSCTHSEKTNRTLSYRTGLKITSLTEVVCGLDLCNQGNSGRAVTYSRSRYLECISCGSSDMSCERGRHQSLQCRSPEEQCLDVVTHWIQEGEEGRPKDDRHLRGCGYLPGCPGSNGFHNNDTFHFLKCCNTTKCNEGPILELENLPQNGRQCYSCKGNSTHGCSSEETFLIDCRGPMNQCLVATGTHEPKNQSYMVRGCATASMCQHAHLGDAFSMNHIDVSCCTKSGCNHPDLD

T1 sequence (Q03405 23-305): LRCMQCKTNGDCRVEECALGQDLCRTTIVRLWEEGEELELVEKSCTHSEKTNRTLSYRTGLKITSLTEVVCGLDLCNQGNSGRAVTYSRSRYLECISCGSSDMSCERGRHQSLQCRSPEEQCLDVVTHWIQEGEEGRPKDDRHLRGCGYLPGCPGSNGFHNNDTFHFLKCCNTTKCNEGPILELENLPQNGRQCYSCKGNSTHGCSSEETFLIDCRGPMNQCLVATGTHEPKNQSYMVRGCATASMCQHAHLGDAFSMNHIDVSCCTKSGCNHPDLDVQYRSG
T3 sequence (Q03405 23-305): as above
T2 sequence (Q03405 23-299 limits assumed): as the sequence (Q03405 23-299 limits assumed) above

IC50 [1]: ~3.2 µM
molar excess resulting in a 50% inhibition of the binding of uPA ([1]; U937 cells, 16 ng FITC-conjugated pro-uPA, 45 min, room temperature): approximately 3,000 molar excess
higher affinity to uPAR compared to the two other peptides ([1]; versus uPA12-32 [C19A] and clone 20 peptide): 4- to 5 fold
Molecule: CC[C@H](C)[C@H](NC(=O)[C@H](CC(N)=O)NC(=O)[C@H](CO)NC(=O)[C@H](Cc1ccccc1)NC(=O)[C@H](Cc1ccc(O)cc1)NC(=O)[C@H](CCCCN)NC(=O)[C@H](CC(N)=O)NC(=O)[C@H](CO)NC(=O)[C@@H](NC(=O)[C@H](CS)NC(=O)[C@@H](NC(=O)CNC(=O)CN)[C@@H](C)O)C(C)C)C(=O)N[C@@H](Cc1c[nH]cn1)C(=O)N[C@@H](Cc1c[nH]c2ccccc12)C(=O)N[C@@H](CS)C(=O)N[C@@H](CC(N)=O)C(=O)O [uPA16-32] (H-GGTCVSNKYFSNIHWCN-OH; N-terminus and C-terminus assumed)
inhibition of the binding of ATF to uPAR / uPAR binding capacity [2]: effectively inhibit the binding of ATF to uPAR

Molecule: cyclo^19,31uPA19-31: cyclic peptide which contains an intramolecular disulfide bond between the cysteine residues at positions 19 and 31 (CVSNKYFSNIHWC; disulfide 1-13)
inhibition of the binding of uPA to the uPA receptor ([2]; cyclic peptide with disulfide bond between Cys 19 and 31): still able to inhibit the binding of uPA to the uPA receptor
stability of binding activity [3]: significantly more stable

Molecule: uPA10-32: peptide from the receptor binding region of uPA, amino acids 10-32 (NCDCLNGGTCVSNKYFSNIHWCN)
inhibition of the binding of ATF to uPAR / uPAR binding capacity [2]: effectively inhibit the binding of ATF to uPAR

Molecule: uPA12-31: peptide from the receptor binding region of uPA (DCLNGGTCVSNKYFSNIHWC)
inhibition of the binding of ATF to uPAR / uPAR binding capacity [2]: effectively inhibit the binding of ATF to uPAR

Molecule: uPA14-32: peptide having the amino acids 14 to 32 of uPA (LNGGTCVSNKYFSNIHWCN) [reference compound]
inhibition of the binding of ATF to uPAR / uPAR binding capacity [2]: effectively inhibit the binding of ATF to uPAR

Molecule: uPA17-32: peptide from the receptor binding region of uPA (GTCVSNKYFSNIHWCN)
inhibition of the binding of ATF to uPAR / uPAR binding capacity [2]: considerably reduced uPAR binding capacities

inhibition of the binding of ATF to uPAR / uPAR binding capacity [2]: no significant binding capacity
Molecule: uPA18-30: linear peptide from the receptor binding region of uPA (TCVSNKYFSNIHW)

Molecule: uPA18-34: peptide from the receptor binding region of uPA (TCVSNKYFSNIHWCNCP)
inhibition of the binding of ATF to uPAR / uPAR binding capacity [2]: considerably reduced uPAR binding capacities

inhibition of the binding of ATF to uPAR / uPAR binding capacity [2]: no significant binding capacity
Molecule: uPA20-30: linear peptide from the receptor binding region of uPA (VSNKYFSNIHW)

inhibition of the binding of ATF to uPAR / uPAR binding capacity [2]: no significant binding capacity
Molecule: uPA20-32: linear peptide from the receptor binding region of uPA (VSNKYFSNIHWCN)

inhibition of the binding of ATF to uPAR / uPAR binding capacity [2]: does not bind at all to the uPAR
Molecule: uPA20-34: peptide from the receptor binding region of uPA (VSNKYFSNIHWCNCP)

IC50 [4]: ~0.8 µM
Molecule: CVSNKYFSNIHWC (Linear form) [linear peptide uPA19-31]

molar excess for 50% inhibition of the binding of uPA [5]: ~12000 fold molar excess
Molecule: AEPMPHSLNFSQYLWYT [clone 20-peptide AEPMPHSLNFSQYLWYT]

molar excess for 50% inhibition of the binding of uPA [5]: ~3000 fold molar excess
Molecule: GGTCVSNKYFSNIHWCN (peptide, UniProt P00749 36-52, looked up, range 16-32) [uPA16-32]

Molecule: VSNKYFSNIHWCN (peptide, UniProt P00749 40-52, looked up, range 40-52) [uPA20-32]
binding result [6]: no binding (tested: 15 µg synthetic peptide per ml)

Molecule: TCVSNKYFSNIHW (peptide, UniProt P00749 38-50, looked up, range 18-30) [uPA18-30]
binding result [6]: no binding (tested: 15 µg synthetic peptide per ml)

Molecule: VSNKYFSNIHWCNCP (peptide, UniProt P00749 40-54, looked up, range 40-54) [uPA20-34]
binding result [6]: no binding (tested: 15 µg synthetic peptide per ml)
